Experimental data taken from the DeepSol protein solubility set.

Assay: soluble on expression in E. coli; label from the status in PepcDB or PDB records

| Sequence | soluble on expression in E. coli |
| --- | --- |
| MSLHKEYIQNYLNLTRNTGNLMLFAGDQKIEHLNEDFYGKDISKDDADPEHLFKIAENSKIGGFAVQFGLLSRYGRDHKDINYIVKLNSKTNLVDTNQKDPLSRALLDINDILEFKKNSGINIVGVGYTIYLGSEYESEMLSEASKIIYEAHKGGLVVILWIYPRGKAVKDEKDSELISGATGVAACLGADFVKVNYPKSENPAESFKEAVMAAGRTKVVCAGGSSTDIESFLKQLYEQIHISGASGNATGRNIHQKSLSDAVSMCNAIYAITIDGKTVSEALNIYNERKSEGHHHHHH | not soluble |
| EVKLVESGGGLVLPGGSLRLSCATSGFTFTDYYMTWVRQPPGKALEWLGFIGNKANDYTTEYSASVKGRFTISRDDSQSILYLQMSTLRAEDRATYYCATVYGNYPYFDVWGVGTTVAVSSATTTAPSVYPLVPGCSDTSGSSVTLGCLVKGYFPEPVTVKWNYGALSSGVRTVSSVLQSGFYSLSSLVTVPSSTWPSQTVICNVAHPASKVDLIKEISGP | soluble |
| GFIDSHVHIESSMVSPKEFARAVISRGTTTIIVDPHEIANVCGMDGIKYMMEETKNMPLDVFFMLSSCVPATSFETSGAVLKAEDLKELIDSDRVLGLGEMMNYPGVLSREEEVLNKLKLAGSYNKIVDGHAPSVRGNELNAYNLAGIKTDHECSSIEEMNEKIRNGMYIAIREGSAAKNLDILIKGVNAKNERRIMFCADDRHPDDILKSGHMDNCVRRAIYNGIENTAAIRMASINAAECYKLERVGAIAPSYKADLVVLEDLKDVKVNMVIKSGEVVFKDNKHLKDMGSKSDI | not soluble |
| AHHHHHHGSKIKRKIYWTKEFDSSHLLDLPYESKCKRIHGHTYRIEIEIYGDINEQGMIFDFNHLSDLIKELDHKIIVSKNWIEEREEFIVVKKNQKTLEIPRSEVVVIDKPNVTAEYLAEWFVEKILEKADKNIYEIKVRVWEDPRSYAEVTLELQGS | soluble |
| MSEDKDMKNRNAMTIKRFVDVEEDGEHGGSGEFAELFQESIKQHRVGEVVTGKVVHISNEFVLVDIGYKSEGCIAIDEFLDEDGNLTVKVGDEVKALFERKENQKGYAVLSRRKAERLAVWDVIDEAGGEGGIIEGKITGKVKGGLTVDIGVQAFLPASQVDLRPGGNLDKYIGTTDRFKVLKLNKKRGNIVLSRRVLMEEERESSRKETLATLAEGQVREGVVKNITDYGAFVDIGGVDGLLHVTDMSWGRLGHPSEILKPGDKLNVKVLKYDQEKGKISLGLKQVTPDPWVSVEQKYNQGDRVKGKVVSLTDYGAFIALEDGVEGLVHVSEMSWTRRLRHPSEILTVGDEVETVVLGVDMGNRRISLGLKQVQVNPWTQLEEKYPVGTKLEGQIKSITDFGVFIGIEEGIDGLVHVSDISWTKRIKHPGEVFTKGQTVQAVVLNIDPENERLSLGIKQLLLDPWSEIPVKYRPGTRVHGKVTSVTDFGVFLEIEEGIEGLIHVSELSREKVASPKEFTNVGDELDAVVLSVDESEKKIALSIKSLQMAAEKAEIESYMQAQGEATSNLGELLKVGFRKNGDGNDLEHHHHHH | not soluble |
| MLNKRHLPSIAALQCFEAVTRHLSFTRAAEELNLTQSAVSKQVAQLEELVQHLLFQRVRRRLQLTPAGALYLAEVRKILTQIEMSTHFLRSYGGETEVLRVSTPSTFGARWLVPRLKGWRLRHPHIHLDLINEQESDDLLKGRCDVSFYFGQAAIPGAESVKLFGEELVPVCSPDSLPAEPFTDPTQLSELVLLQNAFRPQAWHEWFESQGYHTDHSYHGPRFETFYMCIRAAQVGCGVALLPRFLVEEELAEGKLVIAWDYALPSTNSAYYLSYPEHTADVPKIRVFLQWMLEQLDQPAR | not soluble |
| MGSDKIHHHHHHMSNSLKASTAGLAIVDKSRQRLGWTKTSTARWWQDAHTSRATLRRFWQGDRIQREIFIAICQAVGIGNWEAIAELSNADLESTVVIPTPYLDCNEAPDLESFYGRNQELAQLEEWLTSQNCKLVTINGIAGIGKTALALALVDRIQLKFDCLIWKSLQTSPSLISLLNSLLNSFEQGVVVQNIQQGTAQLIQQLQKHHCLLILDGLEAIFSQPEDLSYGQFIQQLSRERHQSCILISSREQPNNIETNTKIYHCLNLKGLPKTEAVELLQSRGFTGKELGLSVLIQLYRGNPLVLKLVTPLIQSVFGGNVAAFLSQHTLIVGDRLRVILKQQFEQLSGLEQDILYWLAIWQEPVSFSRLQTHLLISVDPAMVLEGIVALERRSLLEKWVSDYELSFTLQPLVMKVVTDELIEHTVQEIDRVVQSHDIRHFQILRTHWLLRPGTDDIAGDRILTQLWKKLWHLYGATLPQIFNQILLLLKSQSPLAMGYIGSNVAILSGIDLL | not soluble |
| MGSDKIHHHHHHMEPQWDDMKVFLAVARESSLSGAGRVLKMDPATVGRRVARFEAALKTSLFVKSPQGYALSAAGDRLLGHAEAAELAMRAGEEALTGPSDTLSGQIRIGAPDGCANYILPQVCAAISKDNPDLDIQVVALPRVINLSRREADMAVTVSAPTAGKLLVQKITDYHLHLAATRHYLRDNHPIEKLEHLRDHRMIGYIPDMIFDRELDYLNDLGIERVSLASNSVSVQIKMLAEGSALGVVHDFSLPSHRTLRKVLKEEFSLTRSFYLVRHQGDQRSDRLNRFAEALSAGIRAEVERLEGLT | not soluble |
| MKLLRYGPVGEERPALLDELGEIRDLSAHIEDISGKFLLPATLYKLRQLDSASLPLVRGEQRLGACVGHVGKFICVGLNYADHAAETGAEIPQEPVIFNKWTSAIIGPNDDIEIPRNSVKTDWEVELGVVIGTGGRYIGEANAMSYVAGYCVVNDISEREFQLEHGGTWDKGKGCDTFGPIGPWLVTRDEIPDPHQLGLWLDVDGRRYQNGSTRTMIFKIPQIISYLSRFMSLQSGDVISTGTPPGVGLGQKPPVYLHAGQIMRLGIEGLGEQCQKTIQA | not soluble |
| MPAPDPMRGDPPHPAPPRLRSPLDPTSGDPLHPAPPRLRSPLDPTSGDPLHPAPPRLRSPLDPTSGDPLHPAPPRLRSPLVLLDGASMWFRSFFGVPSSITAPDGRPVNAVRGFIDSMAVVITQQRPNRLAVCLDLDWRPQFRVDLIPSYKAHRVAEPEPNGQPDVEEVPDELTPQVDMIMELLDAFGIAMAGAPGFEADDVLGTLATRERRDPVIVVSGDRDLLQVVADDPVPVRVLYLGRGLAKATLFGPAEVAERYGLPAHRAGAAYAELALLRGDPSDGLPGVPGVGEKTAATLLARHGSLDQIMAAADDRKTTMAKGLRTKLLAASAYIKAADRVVRVATDAPVTLSTPTDRFPLVAADPERTAELATRFGVESSIARLQKALDTLPG | not soluble |
| LQELSITNFAIIEHLDIAFEAGMTVLTGETGAGKSIIIDAVGLLAGGRGSAEFIRTGADKAVLQGMFILPADGVTAQLLDEAGIEHADNTVILQREITKSGRNTCRINGMLVNTTTLKQIGETIVDIHGQNEHQELMQPEKHLGLLDEFATA | not soluble |
| MSLTLFHAPRSRSTRIVTLLRELDAIDKVAIKIVDITRGDGSGRKDPKNLHPEGKVPLLDHDGVVIWESIAIIQYLTDLFPEKKMAPVAGDPQRGRYLSWLAWYAGVVEPVLIMQAAGISHPFVDFTFRSPAELAARLETALKDCPYLMGERYTAVDLLLHSPFAWCPAATPESDVVKAWIERCGERPSLQWTANYDACTVVAEGHHHHHH | soluble |
| MPVETREISVTAKEDCGIVDITGIVSEEVEKSEIKNGTVTVFCVGSTGAISTMEFESNLSKDISEILDKLIPLNEDYHHHKTWGDFNGGSHLRSFLLGPSLTVPFVEKKLTLGTWQQIVYINFDRIEKVRKIVLQIIGDLLEHHHHHH | soluble |
| HHHHHHMAGMAMDLGGYLTRIGLDGRPRPDLGTLHAIVAAHNRSIPFENLDPLLGIPVADLSAEALFAKLVDRRRGGYCYEHNGLLGYVLEELGFEVERLSGRVVWMRADDAPLPAQTHNVLSVAVPGADGRYLVDVGFGGQTLTSPIRLEAGPVQQTRHEPYRLTRHGDDHTLAAQVRGEWQPLYTFTTEPRPRIDLEVGSWYVSTHPGSHFVTGLTVAVVTDDARYNLRGRNLAVHRSGATEHIRFDSAAQVLDAIVNRFGIDLGDLAGRDVQARVAEVLDT | soluble |
| MFGRQVGRVVFRTASVVVQRRSVSASVPQMVKLVAPSVNFIQTRGSKIEVFGPFDPPKQLTFKQVEDRVLKAVRSWDRFPADKESLLKLDADLSKDFGFDSLDQVEIVMALEDEFGFEIPLQDSDKFKTIRDAFKYICEREDVYE | not soluble |
| GPGSMAFHPRDAFILHQEQIQRYNEGDEVDTSAEQKVQIELQRLTDSESTVTIAFSHEDHTLGNPLRHVLMQNREVTSAGYAIPHPLEAKMLLHVQSTDYAVEAVAEGLERLASICDETLQSFEDCMHRMRCEGAKQE | not soluble |
| MKEIYLPLHHGKAPHWLLSRMKKLAKPIVKLIVLEYGEREFLERLSNPIFFQSLSNVLGFDWNSSGVTTVLTGVLKAVINNEEFDIRIAGGKGGNALKTPEEIMNYSEQIGADGEKLVEFSRLAAKADNAALIDGYSLYHHAVIFTPRYFTVIQQGMNETERMARRYHWNVYSSVPELENVHEGIITERRENEVVNMLSDISRDAKRLCVDIVRDGSFRRDYERMISVLRWRKGLRVPKKLDWKVVERAYNLQPERFEELLLIRGFGRETIRALALVAEIIYNTEYDKTDPAKYCFAVGGKDGVPFPVRRDIYDEIIEFMRETVKQAEIGDFEKKKMLERLSRYGCDCQERRD | soluble |
| MSLNVFDKSGQSSGYKLSSTIGKNNTDVNKNDNNSAIYSESAVIVFGYPEYLSNQVITHFSHFGNILEDFEILRSSTGINNNTFRLHANLNALQEGSMSTKLPIFTGEGWVKITYDSPTSALRALKENGTVFTGHLIGCIPYSKSAVEQLALISVDKSDDIGSIDLGQINKSVNEDSRNKGSNGKVYPSLGSVDHIEPINGRQKEANMKSFGTPIINNNQQYLDHSIMAHPRHKLDIQDGKSLFVHNSSHHKTQFLDNIEKKIKEKEANKNESGSWSGRLTNWVFGWDNEGHHHHHH | soluble |
| MKESMSSVDIKYITEELKDMIVGSRVEKIYHEGNEIRFKLHKTGVGRVDLLIEAGKRIHITTYVKENLQPTSFAMLLRKYLSGKFLEDIRQYEFDRVVILSFGEYFLIAELFGRGNIIFVTKDWEIIGALRYEEFKDRAIKPKIKYVFPPSRANPLKVSFEEFKEIILNSQGTEIVRALAKNFSIGGLYSEETLLRAKIDKDRKVDELSEEELRLVYDTLLTVLNDEKKPNIVYNKEGVMVDVVPIDLQWYREYTKRYYESFSEALDEYFGKLTIEKARLEKTKQLEERRKALEISLRRIEEQIKGFEKEAMTNQEKGDALYAHYSIVNEILRVISSALKQYGVEEVKKRIEEGKKAGYPWAKMIIDVTDNKVTLNLDGIKVSLDVEKSLEENAELYYERAKKAKKKLEGAKIAYEETKRKLIELEKEIERESKEINIKKITRKKKKWFE | not soluble |
| MNLVETAQAIKTGKVSLGIELGSTRIKAVLITDDFNTIASGSYVWENQFVDGTWTYALEDVWTGIQQSYTQLAADVRSKYHMSLKHINAIGISAMMHGYLAFDQQAKLLVPFRTWRNNITGQAADELTELFDFNIPQRWSIAHLYQAILNNEAHVKQVDFITTLAGYVTWKLSGEKVLGIGDASGVFPIDETTDTYNQTMLTKFSQLDKVKPYSWDIRHILPRVLPAGAIAGKLTAAGASLLDQSGTLDAGSVIAPPEGDAGTGMVGTNSVRKRTGNISVGTSAFSMNVLDKPLSKVYRDIDIVMTPDGSPVAMVHVNNCSSDINAWATIFHEFAARLGMELKPDRLYETLFLESTRADADAGGLANYSYQSGENITKIQAGRPLFVRTPNSKFSLPNFMLTQLYAAFAPLQLGMDILVNEEHVQTDVMIAQGGLFRTPVIGQQVLANALNIPITVMSTAGEGGPWGMAVLANFACRQTAMNLEDFLDQEVFKEPESMTLSPEPERVAGYREFIQRYQAGLPVEAAAGQAIKYLEHHHHHH | soluble |
